Measurements published in article PMC8041205, “TcpC inhibits toll-like receptor signaling pathway by serving as an E3 ubiquitin ligase that promotes degradation of myeloid differentiation factor 88” (PLoS Pathogens, 2021).

Tests used:
[1] = target: T1, recombinant TcpC (Toll/interleukin-1 receptor domain-containing protein encoded by E. coli) (uropathogenic E. coli (UPEC), UniProt A0A0H2V8B5 1-307); assay: SPR; 1 nM UBE2D1 cross-linked on an activated CM5 chip; 0.05-0.8 nM rTcpC in PBS flowed over; Biacore T200; conditions: both partners purified
T1 construct: TcpC, TIR domain-containing virulence factor of uropathogenic E. coli; called 'the full length rTcpC protein'; predicted TIR domain 171-304 aa; Only the vector pET42a is named; Depending on the cloning sites it may also add an N-terminal GST and S-tag; CFT073 is surmised; also called rTcpC; rTcpC prototype; source: E. coli BL21DE3 transformed with pET42a-tcpc, purified, LPS-free

[2] = target: T1, recombinant TcpC (Toll/interleukin-1 …); assay: ITC; 1 uM rTcpC in PBS in the titration pool, 0.1 uM UBE2D1 or rMyD88 in PBS in the sample pool; VP-ITC microcalorimeter; conditions: both partners purified

B1: UBE2D1 (R&D) (enzyme)
chain: not shown
notes: UBE2D1 bought from R&D; No catalogue number is printed, so the species and construct of the bought protein are unknown; source: bought: R&D
- Kd [1]: 17.2 nM
- Kd [2]: 763 nM
